Kd and dH data for one substance are collected here from PMC7458460.

The Kd is a measure of binding affinity in units of concentration.

This experiment has as its target CN391 (CNA_(1–391)/CNB_(1–170)) (UniProt Q08209). Kind of experiment: ITC. Background: In ITC the heat of successive injections is recorded.

Chain of RCAN1_(core) WT (residues 128 to 164) (P53805 183-219): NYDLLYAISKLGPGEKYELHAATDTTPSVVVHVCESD
Chain of CN391 (CNA_(1–391)/CNB_(1–170)) (Q08209 1-391, chain 1 of 2): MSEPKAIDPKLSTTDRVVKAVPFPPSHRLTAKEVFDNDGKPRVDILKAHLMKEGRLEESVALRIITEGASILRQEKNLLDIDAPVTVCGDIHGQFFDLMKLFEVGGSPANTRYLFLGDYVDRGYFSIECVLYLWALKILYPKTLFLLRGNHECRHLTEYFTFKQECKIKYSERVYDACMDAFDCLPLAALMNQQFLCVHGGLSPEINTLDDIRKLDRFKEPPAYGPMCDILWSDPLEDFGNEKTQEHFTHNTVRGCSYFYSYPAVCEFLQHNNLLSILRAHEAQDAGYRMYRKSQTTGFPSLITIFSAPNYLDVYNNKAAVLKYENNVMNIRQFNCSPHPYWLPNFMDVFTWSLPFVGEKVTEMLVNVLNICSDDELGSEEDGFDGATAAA
Chain of CN391 (CNA_(1–391)/CNB_(1–170)) (P63098 whole entry, chain 2 of 2, further chain): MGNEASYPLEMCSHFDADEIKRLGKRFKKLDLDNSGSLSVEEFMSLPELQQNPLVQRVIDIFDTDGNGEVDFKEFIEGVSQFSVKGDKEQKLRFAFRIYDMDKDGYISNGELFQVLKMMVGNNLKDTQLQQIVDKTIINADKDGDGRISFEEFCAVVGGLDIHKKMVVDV

The substance “RCAN1_(core) WT (residues 128 to 164) (from UniProt P53805-2 128-164) (domain or fragment)” had a dissociation constant (Kd) of 161 nM and a dH of -18.8 kcal/mol.
